Laboratory results reported in patent US20200270325A1 (Merck Sharp & Dohme, published 2020).
Numbered stars: 1 amine (or outer) side, 2 acyl side, 3 side chain; on linkers, the order of the positions; unused ones are H or OH. Square brackets hold non-standard residues; d marks the D form. Side chains are listed from the residue outwards. Ends that are not written are not given here. * marks the point of attachment. Phe(4-CH2NH2) = NCc1ccc(C[C@H](N)C(=O)O)cc1; C18 diacid = O=C(O)CCCCCCCCCCCCCCCCC(=O)*; γGlu = O=C(O)[C@H](CCC(=O)[*:2])N[*:1]; Met(O2) = CS(=O)(=O)CC[C@H](N)C(=O)O; AEEA = NCCOCCOCC(=O)O; Aib = CC(C)(N)C(=O)O

B1: TP701 (peptide)
peptide: H[Aib]QGTFTSDYSKYLDERAAKDFVK([AEEA-AEEA-γGlu-C18 diacid])WL[Met(O2)]DT-NH2
modifications: N-terminus assumed
SMILES: CC(C)C[C@H](NC(=O)[C@H](Cc1ccc(O)cc1)NC(=O)[C@H](CCCCN)NC(=O)[C@H](CO)NC(=O)[C@H](Cc1ccc(O)cc1)NC(=O)[C@H](CC(=O)O)NC(=O)[C@H](CO)NC(=O)[C@@H](NC(=O)[C@H](Cc1ccccc1)NC(=O)[C@@H](NC(=O)CNC(=O)[C@H](CCC(N)=O)NC(=O)C(C)(C)NC(=O)[C@@H](N)Cc1c[nH]cn1)[C@@H](C)O)[C@@H](C)O)C(=O)N[C@@H](CC(=O)O)C(=O)N[C@@H](CCC(=O)O)C(=O)N[C@@H](CCCNC(=N)N)C(=O)N[C@@H](C)C(=O)N[C@@H](C)C(=O)N[C@@H](CCCCN)C(=O)N[C@@H](CC(=O)O)C(=O)N[C@@H](Cc1ccccc1)C(=O)N[C@H](C(=O)N[C@@H](CCCCNC(=O)COCCOCCNC(=O)COCCOCCNC(=O)CC[C@H](NC(=O)CCCCCCCCCCCCCCCCC(=O)O)C(=O)O)C(=O)N[C@@H](Cc1c[nH]c2ccccc12)C(=O)N[C@@H](CC(C)C)C(=O)N[C@@H](CCS(C)(=O)=O)C(=O)N[C@@H](CC(=O)O)C(=O)N[C@H](C(N)=O)[C@@H](C)O)C(C)C
B2: TP700 (peptide)
peptide: H[Aib]QGTFTSDYSEYLDKRAAQDFVK([AEEA-AEEA-γGlu-C18 diacid])WL[Met(O2)]DT-NH2
modifications: N-terminus assumed
SMILES: CC(C)C[C@H](NC(=O)[C@H](Cc1ccc(O)cc1)NC(=O)[C@H](CCC(=O)O)NC(=O)[C@H](CO)NC(=O)[C@H](Cc1ccc(O)cc1)NC(=O)[C@H](CC(=O)O)NC(=O)[C@H](CO)NC(=O)[C@@H](NC(=O)[C@H](Cc1ccccc1)NC(=O)[C@@H](NC(=O)CNC(=O)[C@H](CCC(N)=O)NC(=O)C(C)(C)NC(=O)[C@@H](N)Cc1c[nH]cn1)[C@@H](C)O)[C@@H](C)O)C(=O)N[C@@H](CC(=O)O)C(=O)N[C@@H](CCCCN)C(=O)N[C@@H](CCCNC(=N)N)C(=O)N[C@@H](C)C(=O)N[C@@H](C)C(=O)N[C@@H](CCC(N)=O)C(=O)N[C@@H](CC(=O)O)C(=O)N[C@@H](Cc1ccccc1)C(=O)N[C@H](C(=O)N[C@@H](CCCCNC(=O)COCCOCCNC(=O)COCCOCCNC(=O)CC[C@H](NC(=O)CCCCCCCCCCCCCCCCC(=O)O)C(=O)O)C(=O)N[C@@H](Cc1c[nH]c2ccccc12)C(=O)N[C@@H](CC(C)C)C(=O)N[C@@H](CCS(C)(=O)=O)C(=O)N[C@@H](CC(=O)O)C(=O)N[C@H](C(N)=O)[C@@H](C)O)C(C)C

What follows are binders tested against human Glucagon receptor (GCGR) (human, UniProt P47871 26-477) (assay: cell-based or functional assay).
human Glucagon receptor (GCGR), sequence (P47871 26-477): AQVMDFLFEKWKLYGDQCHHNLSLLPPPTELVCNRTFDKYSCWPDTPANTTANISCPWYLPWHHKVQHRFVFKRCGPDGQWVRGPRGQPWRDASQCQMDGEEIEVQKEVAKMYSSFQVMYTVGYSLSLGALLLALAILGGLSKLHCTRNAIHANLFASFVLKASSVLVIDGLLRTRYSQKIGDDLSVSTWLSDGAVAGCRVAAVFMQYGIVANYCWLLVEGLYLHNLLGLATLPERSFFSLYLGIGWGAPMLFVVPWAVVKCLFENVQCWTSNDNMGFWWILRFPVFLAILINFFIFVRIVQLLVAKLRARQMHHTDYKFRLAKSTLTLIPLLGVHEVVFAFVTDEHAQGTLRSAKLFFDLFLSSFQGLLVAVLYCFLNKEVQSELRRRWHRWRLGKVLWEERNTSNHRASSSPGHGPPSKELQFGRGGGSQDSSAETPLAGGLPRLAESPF

Row | Binder | GCGR EC50 human [nM]
1 | B1 | > 4.9
2 | H[Aib]QGTFTSDYSKYLDARAAQ[Phe(4-CH2NH2)]([AEEA-AEEA-γGlu-C20‑OH])FVQWLLDT-NH2 [TP585] | 1.13
3 | B2 | > 4.9

The binders below were run against human GLP-1 receptor (GLP1R) (human, UniProt P43220 24-463) (assay: cell-based or functional assay).

Row | Binder | GLP1R EC50 human [nM]
4 | B1 | 0.18
5 | H[Aib]QGTFTSDYSKYLDARAAQ[Phe(4-CH2NH2)]([AEEA-AEEA-γGlu-C20‑OH])FVQWLLDT-NH2 [TP585] | 0.566
6 | B2 | 0.35
